Earlier results, collected in publication PMC6222470.
Each block holds one substance with its values, some of them ahead of it.

Legend:
[1] = target: histone H4 H4K20me2 peptide (Homo sapiens) (UniProt P62805)
[2] = target: histone H3 H3K14ac peptide (Homo sapiens) (UniProt P68431)
[3] = target: histone H3K14ac peptide H3 tail peptide (Homo sapiens) (UniProt P68431)
[4] = target: histone H3 H3K36me3 peptide (Homo sapiens) (UniProt P68431)
[5] = target: histone H3.3K36me3 H3.3 peptide (Homo sapiens) (UniProt P84243)
Sequence of histone H3.3K36me3 H3.3 peptide (Homo sapiens) (P84243 20-43): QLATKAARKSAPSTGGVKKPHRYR

Sequence of ZMYND11 PHD-BD-ZnF-PWWP (Q15326 100-371): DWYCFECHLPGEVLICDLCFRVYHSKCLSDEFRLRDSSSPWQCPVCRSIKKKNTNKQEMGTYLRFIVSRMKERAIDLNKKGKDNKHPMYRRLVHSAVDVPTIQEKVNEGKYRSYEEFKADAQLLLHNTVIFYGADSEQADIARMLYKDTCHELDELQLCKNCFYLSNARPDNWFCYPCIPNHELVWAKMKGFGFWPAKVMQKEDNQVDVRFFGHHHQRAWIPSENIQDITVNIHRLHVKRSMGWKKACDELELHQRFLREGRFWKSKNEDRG
Sequence of PHF1 Tudor (O43189 26-89): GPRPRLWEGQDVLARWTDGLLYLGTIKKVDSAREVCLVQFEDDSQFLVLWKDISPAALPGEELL
Sequence of BRM BD BD (P51531 1378-1506): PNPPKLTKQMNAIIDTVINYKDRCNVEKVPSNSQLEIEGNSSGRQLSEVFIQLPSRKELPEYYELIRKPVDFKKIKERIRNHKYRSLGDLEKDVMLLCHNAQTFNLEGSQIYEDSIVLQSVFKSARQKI
Sequence of BRM BD (P51531 1378-1506): as above
Sequence of 53BP1 TTD (Q12888 1484-1603): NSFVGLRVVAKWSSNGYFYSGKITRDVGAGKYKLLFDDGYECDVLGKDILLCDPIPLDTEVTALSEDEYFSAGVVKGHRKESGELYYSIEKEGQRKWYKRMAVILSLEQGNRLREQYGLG

Substance: BRM BD (from UniProt P51531)
Kd [2]: 900 µM

Substance: BRM BD BD (from UniProt P51531)
Kd [3]: 900 µM

Next, values leading:

Kd [1]: 19.7 µM
Substance: 53BP1 TTD (from UniProt Q12888)

Kd [4]: 36 µM
Substance: PHF1 Tudor (from UniProt O43189)

Kd [5]: 56 µM
Substance: ZMYND11 PHD-BD-ZnF-PWWP (from UniProt Q15326)
